Numbering of substitutions follows the chain as printed. Numbers in names are those of the source.
B1: short form of human Opa1 (s-Opa1, S1 form), wild type (natural protein, UniProt O60313-1 195-960, looked up)
chain: ATDRGSESDKHFRKVSDKEKIDQLQEELLHTQLKYQRILERLEKENKELRKLVLQKDDKGIHHRKLKKSLIDMYSEVLDVLSDYDASYNTQDHLPRVVVVGDQSAGKTSVLEMIAQARIFPRGSGEMMTRSPVKVTLSEGPHHVALFKDSSREFDLTKEEDLAALRHEIELRMRKNVKEGCTVSPETISLNVKGPGLQRMVLVDLPGVINTVTSGMAPDTKETIFSISKAYMQNPNAIILCIQDGSVDAERSIVTDLVSQMDPHGRRTIFVLTKVDLAEKNVASPSRIQQIIEGKLFPMKALGYFAVVTGKGNSSESIEAIREYEEEFFQNSKLLKTSMLKAHQVTTRNLSLAVSDCFWKMVRESVEQQADSFKATRFNLETEWKNNYPRLRELDRNELFEKAKNEILDEVISLSQVTPKHWEEILQQSLWERVSTHVIENIYLPAAQTMNSGTFNTTVDIKLKQWTDKQLPNKAVEVAWETLQEEFSRFMTEPKGKEHDDIFDKLKEAVKEESIKRHKWNDFAEDSLRVIQHNALEDRSISDKQQWDAAIYFMEEALQARLKDTENAIENMVGPDWKKRWLYWKNRTQEQCVHNETKNELEKMLKCNEEHPAYLASDEITTVRKNLESRGVEVDPSLIKDTWHQVYRRHFLKTALNHCNLCRRGFYYYQRHFVDSELECNDVVLFWRIQRMLAITANTLRQQLTNTEVRRLEKNVKEVLEDFAEDGEKKIKLLTGKRVQLAEDLKKVREIQEKLDAFIEALHQEK
notes: OPA1, human, short form corresponding to the S1 form that results from Oma1 cleavage, residues 195-960 of UniProt O60313-1, codon optimized for Pichia pastoris; Construct: Twin-Strep-tag, HRV 3C site, (G4S)3 linker at the N-terminus; (G4S)3 linker, TEV site, deca-histidine tag at the C-terminus; His tag said to be cleaved with TEV in all the functional assays; also called WT s-Opa1; …
B2: G300E mutant of s-Opa1 (s1) (natural protein, human, UniProt O60313-1 195-960, looked up)
chain: B1 chain with G106E
notes: OPA1, human, short form (S1), residues 195-960 of UniProt O60313-1, with G300E; same tags and linkers as m2; also called G300E s-Opa1; sOPA1 (G300E); source: Pichia pastoris SMD1163, purified
B3: long form of human Opa1 (l-Opa1), wild type (natural protein, UniProt O60313-1 88-960, looked up)
chain: FWPARLATRLLKLRYLILGSAVGGGYTAKKTFDQWKDMIPDLSEYKWIVPDIVWEIDEYIDFEKIRKALPSSEDLVKLAPDFDKIVESLSLLKDFFTSGSPEETAFRATDRGSESDKHFRKVSDKEKIDQLQEELLHTQLKYQRILERLEKENKELRKLVLQKDDKGIHHRKLKKSLIDMYSEVLDVLSDYDASYNTQDHLPRVVVVGDQSAGKTSVLEMIAQARIFPRGSGEMMTRSPVKVTLSEGPHHVALFKDSSREFDLTKEEDLAALRHEIELRMRKNVKEGCTVSPETISLNVKGPGLQRMVLVDLPGVINTVTSGMAPDTKETIFSISKAYMQNPNAIILCIQDGSVDAERSIVTDLVSQMDPHGRRTIFVLTKVDLAEKNVASPSRIQQIIEGKLFPMKALGYFAVVTGKGNSSESIEAIREYEEEFFQNSKLLKTSMLKAHQVTTRNLSLAVSDCFWKMVRESVEQQADSFKATRFNLETEWKNNYPRLRELDRNELFEKAKNEILDEVISLSQVTPKHWEEILQQSLWERVSTHVIENIYLPAAQTMNSGTFNTTVDIKLKQWTDKQLPNKAVEVAWETLQEEFSRFMTEPKGKEHDDIFDKLKEAVKEESIKRHKWNDFAEDSLRVIQHNALEDRSISDKQQWDAAIYFMEEALQARLKDTENAIENMVGPDWKKRWLYWKNRTQEQCVHNETKNELEKMLKCNEEHPAYLASDEITTVRKNLESRGVEVDPSLIKDTWHQVYRRHFLKTALNHCNLCRRGFYYYQRHFVDSELECNDVVLFWRIQRMLAITANTLRQQLTNTEVRRLEKNVKEVLEDFAEDGEKKIKLLTGKRVQLAEDLKKVREIQEKLDAFIEALHQEK
notes: OPA1, human, long form, residues 88-960 of UniProt O60313-1 (isoform 1), codon optimized for Pichia pastoris; Construct: Twin-Strep-tag, HRV 3C site, (G4S)3 linker at the N-terminus; (G4S)3 linker, TEV site, deca-histidine tag at the C-terminus; also called WT l-Opa1; TwinStrep-lOPA1-H10

Experiments:
[1] = biological target: the molecule itself; assay: native gel or EMSA; Blue native PAGE (BN-PAGE), 3-12% Bis-Tris gradient gels, sample buffer with 0.25% Coomassie G-250 and 1 mM DDM, cathode buffer with 1 mM DDM, 4 °C; mixtures of l-Opa1 and s-Opa1 incubated on ice for 10 min before loading
[2] = biological target: B3; assay: as above; details: both partners purified

B1
binding result [1]: binds

B2
binding result [2]: binds

B3
binding result [1]: binds

Reference: publication PMC7299343, “Two forms of Opa1 cooperate to complete fusion of the mitochondrial inner-membrane” (eLife, 2020)
